Data on two proteins can be found in paper PMC5264606, “Clusterin: full-length protein and one of its chains show opposing effects on cellular lipid accumulation” (Scientific Reports, 2017).

Data set [1] concerns the molecule itself. Nature of the data set: dynamic light scattering; 1 mg/ml in PBS pH 7.4, filtered through 0.22 μm, 25 °C; hydrodynamic radius; self-association.
Data set [2] concerns the molecule itself. Put plainly: AUC; sedimentation velocity; 0.5 mg/ml in 20 mM phosphate buffer pH 7.4, 18,000 rpm, 20 °C, An50Ti rotor; SEDFIT (Lamm equation); self-association into large oligomers.

B1: β-chain of human clusterin (β-Clu), recombinant (domain or fragment, UniProt P10909 228-449, looked up)
chain: SLMPFSPYEPLNFHAMFQPFLEMIHEAQQAMDIHFHSPAFQHPPTEFIREGDDDRTVCREIRHNSTGCLRMKDQCDKCREILSVDCSTNNPSQAKLRRELDESLQVAERLTRKYNELLKSYQWKMLNTSSLLEQLNEQFNWVSRLANLTQGEDQYYLRVTTVASHTSDSDVPSGVTEVVVKLFDSDPITVTVPVEVSRKNPKFMETVAEKALQEYRKKHREE
notes: The printed primers encode M-SLMPFSP... at the start and ...HREE-stop at the end; The NdeI site of the forward primer adds an initiator Met before S228; Not glycosylated (bacterial). cDNA came from IMR32 human neuroblastoma cells; also called β-clusterin
In the case of B1, in data set [1], the binding result is on record as “binds”.

B2: α-chain of human clusterin (α-Clu), recombinant (domain or fragment, UniProt P10909 23-227, looked up)
chain: DQTVSDNELQEMSNQGSKYVNKEIQNAVNGVKQIKTLIEKTNEERKTLLSNLEEAKKKKEDALNETRESETKLKELPGVCNETMMALWEECKPCLKQTCMKFYARVCRSGSGLVGRQLEEFLNQSSPFYFWMNGDRIDSLLENDRQQTHMLDVMQDHFSRASSIIDELFQDRFFTREPQDTYHYLPFSLPHRRPHFFFPKSRIVR
notes: The printed primers encode M-DQTVSD... at the start and ...RIVR-stop at the end; Printed theoretical subunit mass: 24 kDa; The NdeI site of the forward primer adds an initiator Met before D23; Not glycosylated (bacterial). cDNA came from IMR32 human neuroblastoma cells; also called α-clusterin
In general, stoichiometry N refers to a count of units in the complex or per binding partner. In the case of B2, the “stoichiometry N” value in data set [2] was about 60 subunits per oligomer.
